Source: US20180036256A1 (ALBERT LUDWIGS UNIVERSIT T FREIBURG, published 2018)
Square brackets hold non-standard residues; d marks the D form. Ends that are not written are not given here. Lys(Me2) = CN(C)CCCC[C@H](N)C(=O)O

Legend:
[1] = molecular target: T1, Flag-LSD1 K114A (UniProt O60341 1-852, limits assumed); assay: co-immunoprecipitation with anti-Flag antibody from transfected 293T cells without G9A, Western blot decorated with anti-CHD1
T1 construct: Obtained by site directed mutagenesis of Flag-LSD1; not shown: Flag tag

[2] = molecular target: T2, CHD1aa270-443 (UniProt O14646 270-443); assay: isothermal titration calorimetry (data not shown)
T2 construct: Recombinant fragment; also called CHD1 double chromodomain fragment
T2 sequence (looked up): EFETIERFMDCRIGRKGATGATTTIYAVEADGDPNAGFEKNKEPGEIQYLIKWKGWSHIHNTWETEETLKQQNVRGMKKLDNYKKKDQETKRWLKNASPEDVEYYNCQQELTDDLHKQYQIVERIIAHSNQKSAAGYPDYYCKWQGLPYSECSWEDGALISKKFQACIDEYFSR

[3] = molecular target: T2, CHD1aa270-443; assay: co-crystal structure of the CHD1 double chromodomain with the LSD1 K114me2 peptide
Description: Crystals (space group P21212) were grown by sitting drop vapour diffusion at 4° C. in buffer containing 100 mM Hepes pH 7.5, 0.2 M L-proline, 10% (w/v) PEG3350. Prior to flash cooling in liquid nitrogen, crystals were cryoprotected in reservoir solution with 20% (v/v) ethylene glycol. Initial X-ray diffraction data were collected at the PXI beamline at the Swiss Light Source at 1=1.000 Å with a Pilatus detector. […] Data were processed and analyzed with XDS28 and Aimless²⁹. The structure was solved by molecular replacement with Phaser³⁰ using 2B2W as a search model. Manual building and refinement were performed using Coot31 and Refmac532 in the CCP4 program suite³³.

[4] = molecular target: T3, CHD1 D425A (UniProt O14646 270-443, limits assumed); assay: isothermal titration calorimetry (data not shown)
T3 construct: also called D425A mutation in CHD1
T3 sequence (looked up): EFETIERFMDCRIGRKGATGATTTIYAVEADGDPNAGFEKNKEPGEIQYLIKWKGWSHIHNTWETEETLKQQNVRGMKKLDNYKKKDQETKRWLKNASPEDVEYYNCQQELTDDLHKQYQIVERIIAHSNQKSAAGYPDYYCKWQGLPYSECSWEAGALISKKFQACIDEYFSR

B1: endogenous CHD1 (enzyme, human, UniProt O14646 1-1710, looked up)
chain: MNGHSDEESVRNSSGESSQSDDDSGSASGSGSGSSSGSSSDGSSSQSGSSDSDSGSESGSQSESESDTSRENKVQAKPPKVDGAEFWKSSPSILAVQRSAILKKQQQQQQQQQHQASSNSGSEEDSSSSEDSDDSSSEVKRKKHKDEDWQMSGSGSPSQSGSDSESEEEREKSSCDETESDYEPKNKVKSRKPQNRSKSKNGKKILGQKKRQIDSSEEDDDEEDYDNDKRSSRRQATVNVSYKEDEEMKTDSDDLLEVCGEDVPQPEEEEFETIERFMDCRIGRKGATGATTTIYAVEADGDPNAGFEKNKEPGEIQYLIKWKGWSHIHNTWETEETLKQQNVRGMKKLDNYKKKDQETKRWLKNASPEDVEYYNCQQELTDDLHKQYQIVERIIAHSNQKSAAGYPDYYCKWQGLPYSECSWEDGALISKKFQACIDEYFSRNQSKTTPFKDCKVLKQRPRFVALKKQPSYIGGHEGLELRDYQLNGLNWLAHSWCKGNSCILADEMGLGKTIQTISFLNYLFHEHQLYGPFLLVVPLSTLTSWQREIQTWASQMNAVVYLGDINSRNMIRTHEWTHHQTKRLKFNILLTTYEILLKDKAFLGGLNWAFIGVDEAHRLKNDDSLLYKTLIDFKSNHRLLITGTPLQNSLKELWSLLHFIMPEKFSSWEDFEEEHGKGREYGYASLHKELEPFLLRRVKKDVEKSLPAKVEQILRMEMSALQKQYYKWILTRNYKALSKGSKGSTSGFLNIMMELKKCCNHCYLIKPPDNNEFYNKQEALQHLIRSSGKLILLDKLLIRLRERGNRVLIFSQMVRMLDILAEYLKYRQFPFQRLDGSIKGELRKQALDHFNAEGSEDFCFLLSTRAGGLGINLASADTVVIFDSDWNPQNDLQAQARAHRIGQKKQVNIYRLVTKGSVEEDILERAKKKMVLDHLVIQRMDTTGKTVLHTGSAPSSSTPFNKEELSAILKFGAEELFKEPEGEEQEPQEMDIDEILKRAETHENEPGPLTVGDELLSQFKVANFSNMDEDDIELEPERNSKNWEEIIPEDQRRRLEEEERQKELEEIYMLPRMRNCAKQISFNGSEGRRSRSRRYSGSDSDSISEGKRPKKRGRPRTIPRENIKGFSDAEIRRFIKSYKKFGGPLERLDAIARDAELVDKSETDLRRLGELVHNGCIKALKDSSSGTERTGGRLGKVKGPTFRISGVQVNAKLVISHEEELIPLHKSIPSDPEERKQYTIPCHTKAAHFDIDWGKEDDSNLLIGIYEYGYGSWEMIKMDPDLSLTHKILPDDPDKKPQAKQLQTRADYLIKLLSRDLAKKEALSGAGSSKRRKARAKKNKAMKSIKVKEEIKSDSSPLPSEKSDEDDDKLSESKSDGRERSKKSSVSDAPVHITASGEPVPISEESEELDQKTFSICKERMRPVKAALKQLDRPEKGLSEREQLEHTRQCLIKIGDHITECLKEYTNPEQIKQWRKNLWIFVSKFTEFDARKLHKLYKHAIKKRQESQQNSDQNSNLNPHVIRNPDVERLKENTNHDDSSRDSYSSDRHLTQYHDHHKDRHQGDSYKKSDSRKRPYSSFSNGKDHRDWDHYKQDSRYYSDREKHRKLDDHRSRDHRSNLEGSLKDRSHSDHRSHSDHRLHSDHRSSSEYTHHKSSRDYRYHSDWQMDHRASSSGPRSPLDQRSPYGSRSPFEHSVEHKSTPEHTWSSRKT
notes: Endogenous protein in cell extracts; also called endogenously expressed CHD1
binding result [1]: no binding

B2: LSD1 K114me2 peptide with R113 mutated to alanine (peptide, UniProt O60341 104-127, looked up)
peptide: TPEGRRTSRA[Lys(Me2)]RAKVEYREMDESL
notes: also called LSD1 R113A K114me2 peptide
binding result [2]: no binding

B3: LSD1aa108-119 K114me2 peptide (peptide, UniProt O60341 108-119, looked up)
peptide: RRTSRR[Lys(Me2)]RAKVE
notes: range 108-119; Peptide used for co-crystallisation; only residues 110-116 were modelled in the electron density; also called LSD1aa110-116 K114me2 (residues modelled in the structure); LSD1 K114me2 peptide
binding result [3]: binds

B4: LSD1aa104-127 K114me2 peptide (peptide, UniProt O60341 104-127, looked up)
peptide: TPEGRRTSRR[Lys(Me2)]RAKVEYREMDESL
notes: range 104-127; Synthetic peptide, used on the microarray and in ITC; also called LSD1 K114me2 peptide; dimethylated LSD1 peptide
binding result [4]: no binding
